This data set concerns the target Rad52-FLAG (Saccharomyces cerevisiae, UniProt P06778 1-471). Briefly: EMSA; 5 mM MgCl2; 10 mM Tris-HCl pH 8, 5 mM MgCl2, 100 mM NaCl, 37 °C, 10 min; 0.27 µM Cy5-DNA (nt per Fig 6 legend); 8% native PAGE. Conditions: protein: recombinant; tags: FLAG; chain copies: 10; label: 5'-Cy5 on strand 1; blunt.

Chain of Rad52-FLAG (P06778 whole entry): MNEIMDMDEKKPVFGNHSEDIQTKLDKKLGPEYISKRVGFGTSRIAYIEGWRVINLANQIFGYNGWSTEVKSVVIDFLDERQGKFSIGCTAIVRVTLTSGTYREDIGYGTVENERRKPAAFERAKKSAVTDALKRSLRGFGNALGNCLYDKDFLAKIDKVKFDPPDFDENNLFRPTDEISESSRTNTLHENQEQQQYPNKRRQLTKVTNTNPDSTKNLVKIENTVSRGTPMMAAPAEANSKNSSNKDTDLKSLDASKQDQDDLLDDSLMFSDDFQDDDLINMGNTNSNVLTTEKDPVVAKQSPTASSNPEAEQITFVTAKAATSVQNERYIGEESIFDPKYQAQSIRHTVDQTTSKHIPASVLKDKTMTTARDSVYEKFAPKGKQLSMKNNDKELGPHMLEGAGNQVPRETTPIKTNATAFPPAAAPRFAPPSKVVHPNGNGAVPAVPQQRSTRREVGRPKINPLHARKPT

B1: XV2 dsDNA (dsDNA)
DNA 1: TGGGTGAACCTGCAGGTGGGCAAAGATGTCCTAGCAATGTAATCGTCAAGCTTTATGCCGTT
DNA 2: AACGGCATAAAGCTTGACGATTACATTGCTAGGACATCTTTGCCCACCTGCAGGTTCACCCA
With B1, the binding result is recorded as “binds”.
